Results on ten molecules are retold here after patent US20260209358A1.

Assay [1] has as its target T1, CD37 on CD37+ target tumor cells (Daudi or Ramos cells) (UniProt P11049).
T1 sequence (looked up): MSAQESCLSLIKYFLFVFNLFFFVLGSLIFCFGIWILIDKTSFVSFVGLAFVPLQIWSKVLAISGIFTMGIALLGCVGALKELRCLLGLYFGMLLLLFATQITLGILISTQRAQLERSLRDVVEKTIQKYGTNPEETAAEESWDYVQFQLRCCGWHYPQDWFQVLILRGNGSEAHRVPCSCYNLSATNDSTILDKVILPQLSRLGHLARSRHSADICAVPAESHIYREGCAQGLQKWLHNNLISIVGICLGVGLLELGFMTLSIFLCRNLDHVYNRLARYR
Briefly: cell-based or functional assay.

The target in assay [2] is hNKp46-His (extracellular domain of hNKp46 with a C-terminal polyhistidine tag) (human) (UniProt O76036). Description: BLI (Octet RED96), hNKp46-His on Ni-NTA biosensors, MB in solution, 1:1 fit. Background: BLI is a label-free optical method that tracks binding on a fibre tip over time.
UniProt O76036, sequence (O76036 22-258): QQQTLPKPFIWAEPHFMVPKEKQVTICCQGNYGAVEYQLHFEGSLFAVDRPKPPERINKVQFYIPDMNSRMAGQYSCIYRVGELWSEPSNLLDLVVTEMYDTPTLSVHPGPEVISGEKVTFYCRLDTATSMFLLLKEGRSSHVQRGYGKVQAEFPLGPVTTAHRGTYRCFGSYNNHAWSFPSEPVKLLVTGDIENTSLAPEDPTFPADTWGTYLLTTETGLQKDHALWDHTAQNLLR

B1: 016-H5L2 IgG (parent CD37 IgG) (antibody, V domains shown)
VH: EVQLVESGGGLVQPGGSLRLSCAASGFSLSNYNMGWVRQAPGKGLEWVSVIDASGTTYYATWAKGRFTISRDNSKNTLYLQMNSLRAEDTATYYCARELLYFGSSYYDLWGQGTLVTVSS
VL: DVVMTQSPSTLSASVGDRVTITCQASQNIDSNLAWYQQKPGKAPKFLIYYASNLPFGVPSRFKGSGSGTEFTLTISSLQPDDFATYYCQSADVGSTYVAAFGGGTKVEIK
As for B1, in assay [1], the EC50 of ADCC (calcein release) on Ramos cells with primary human NK cells was 8.34 pM and the EC50 of ADCP on Ramos cells with THP-1 effector cells was 21.4 pM.

B2: 016-H5L2 × NKp46-4 H1L2 CD37/NKp46 bispecific MB (protein, part only; not given: Fab constants, linkers, ferritin, scFc, not shown: another chain or arm of the molecule; large carriers; small tags and cut ends)
VH 1: B1 VH
VL 1: B1 VL
VH 2: QVQLVQSGAEVKKPGASVKVSCKASGYTFTSFTMHWVRQAPGQGLEWIGYINPSSGYTEYNQKFKDRVTITADKSTSTAYMELSSLRSEDTAVYYCVRGSSRGFDYWGQGTLVTVSS
VL 2: DIQMTQSPSSLSASVGDRVTITCRASENIYSNLAWFQQKPGKAPKLLVYAATNLADGVPSRFSGSGSGTDYTLTISSLQPEDFATYYCQHFWGTPRTFGGGTKVEIK
modifications: The variable domains sit in single-chain Fabs fused to human ferritin light chain. The NKp46 chain also carries a C-terminal scFc. The chains form a self-assembled multivalent nanocage.
Turning to B2, in assay [1], the EC50 of ADCC (calcein release) on Ramos cells with primary human NK cells was 3.73 pM and the EC50 of apoptosis (Annexin-V+ cells, flow cytometry) on Daudi cells worked out at 142 pM. In assay [2], this molecule returned a Kd of less than 1 pM, a koff of less than 1e-07 s⁻¹ and a kon of 1.67e+06 M⁻¹ s⁻¹.

B3: 016-H5L2 × NKp46-2 H1L1 CD37/NKp46 bispecific MB (protein, part only; not given: Fab constants, linkers, ferritin, scFc, not shown: another chain or arm of the molecule; large carriers; small tags and cut ends)
VH 1: B1 VH
VL 1: B1 VL
VH 2: QVQLQESGPGLVKPSQTLSLTCTVSGYSISSDYAWNWIRQPPGKGLEWIGYITYSGSTSYNPSLESRVTISRDTSKNQFSLKLSSVTAADTAVYYCARGGYYGSSWGVFAYWGQGTLVTVSS
VL 2: DIQMTQSPSSLSASVGDRVTITCRVSENIYSYLAWYQQKPGKAPKLLVYNAKTLAEGVPSRFSGSGSGTDFTLTISSLQPEDFATYYCQHHYGTPWTFGGGTKVEIK
modifications: The variable domains sit in single-chain Fabs fused to human ferritin light chain. The NKp46 chain also carries a C-terminal scFc. The chains form a self-assembled multivalent nanocage.
Take B3: in assay [1], the EC50 of ADCC (calcein release) on Ramos cells with primary human NK cells is 2.91 pM. Further, in assay [2], the Kd is less than 1 pM, the koff is less than 1e-07 s⁻¹ and the kon amounted to 1.25e+06 M⁻¹ s⁻¹.

B4: 016-H5L2 × NKp46-1 H1L1 CD37/NKp46 bispecific MB (protein, part only; not given: Fab constants, linkers, ferritin, scFc, not shown: another chain or arm of the molecule; large carriers; small tags and cut ends)
VH 1: B1 VH
VL 1: B1 VL
VH 2: QVQLVQSGAEVKKPGSSVKVSCKASGYTFSDYVINWVRQAPGQGLEWMGEIYPGSGTNYYNEKFKAKATITADKSTSTAYMELSSLRSEDTAVYYCARRGRYGLYAMDYWGQGTTVTVSS
VL 2: DIQMTQSPSSLSASVGDRVTITCRASQDISNYLNWYQQKPGKAPKLLIYYTSRLHSGVPSRFSGSGSGTDFTFTISSLQPEDIATYFCQQGNTRPWTFGGGTKVEIK
modifications: The variable domains sit in single-chain Fabs fused to human ferritin light chain. The NKp46 chain also carries a C-terminal scFc. The chains form a self-assembled multivalent nanocage.
For B4, in assay [1], the EC50 of ADCC (calcein release) on Ramos cells with primary human NK cells was 1.2 pM and the EC50 of apoptosis (Annexin-V+ cells, flow cytometry) on Daudi cells was found to be 102 pM. In assay [2], this molecule registered a Kd of less than 1 pM, a koff of less than 1e-07 s⁻¹ and a kon of 2.15e+06 M⁻¹ s⁻¹.

B5: 016-H5L2 × NKp46 09 CD37/NKp46 bispecific MB (protein, part only; not given: Fab constants, linkers, ferritin, scFc, not shown: another chain or arm of the molecule; large carriers; small tags and cut ends)
VH 1: B1 VH
VL 1: B1 VL
VH 2: EVQLQQSGAEVKKPGSSVKVSCKTSGYTFTEYSMHWVRQAPGKSLEWFGGISPNSGGTSYNQKFKGRATLTVDKSSSTAYMELSSLRSEDTAVYYCARRDFHSSFDYWGQGTTVTVSS
VL 2: DIVMTQSPATLSLSPGERATLSCRASQSISDYLHWFQQKPHESPRLLIKYASQSISGIPARFSGSGSGSDFTLTISSLEPEDFAVYYCQNGHSFPLTFGPGTKVDIK
modifications: The variable domains sit in single-chain Fabs fused to human ferritin light chain. The NKp46 chain also carries a C-terminal scFc. The chains form a self-assembled multivalent nanocage.
With B5, the EC50 of ADCC (calcein release) on Ramos cells with primary human NK cells in assay [1] is 2.72 pM. In addition, in assay [2], the Kd was less than 1 pM, the koff is less than 1e-07 s⁻¹ and the kon was found to be 1.06e+06 M⁻¹ s⁻¹.

B6: Naratuximab IgG (parent CD37 IgG) (antibody, V domains shown)
VH: QVQVQESGPGLVAPSQTLSITCTVSGFSLTTSGVSWVRQPPGKGLEWLGVIWGDGSTNYHPSLKSRLSIKKDHSKSQVFLKLNSLTAADTATYYCAKGGYSLAHWGQGTLVTVSS
VL: DIQMTQSPSSLSVSVGERVTITCRASENIRSNLAWYQQKPGKSPKLLVNVATNLADGVPSRFSGSGSGTDYSLKINSLQPEDFGTYYCQHYWGTTWTFGQGTKLEIKR
Turning to B6, in assay [1], the EC50 of ADCC (calcein release) on Ramos cells with primary human NK cells is 5.97 pM, the EC50 of ADCP on Ramos cells with THP-1 effector cells is 37.4 pM and the EC50 of CDC (PI+ cells) on Daudi cells with normal human serum came to 450 pM.

B7: Naratuximab × NKp46 09 CD37/NKp46 bispecific MB (protein, part only; not given: Fab constants, linkers, ferritin, scFc, not shown: another chain or arm of the molecule; large carriers; small tags and cut ends)
VH 1: B5 VH 2
VL 1: B5 VL 2
VH 2: B6 VH
VL 2: DIQMTQSPSSLSVSVGERVTITCRASENIRSNLAWYQQKPGKSPKLLVNVATNLADGVPSRFSGSGSGTDYSLKINSLQPEDFGTYYCQHYWGTTWTFGQGTKLEIK
Take B7: the EC50 of ADCC (calcein release) on Ramos cells with primary human NK cells in assay [1] was 0.843 pM. Moreover, in assay [2], the Kd was less than 1 pM, the koff is less than 1e-07 s⁻¹ and the kon is 1.63e+06 M⁻¹ s⁻¹.

B8: Naratuximab × NKp46-2 H1L1 CD37/NKp46 bispecific MB (protein, part only; not given: Fab constants, linkers, ferritin, scFc, not shown: another chain or arm of the molecule; large carriers; small tags and cut ends)
VH 1: B3 VH 2
VL 1: B3 VL 2
VH 2: B6 VH
VL 2: B7 VL 2
In the case of B8, in assay [1], the EC50 of ADCC (calcein release) on Ramos cells with primary human NK cells is 0.374 pM and the EC50 of apoptosis (Annexin-V+ cells, flow cytometry) on Daudi cells was found to be 32 pM. In assay [2], this molecule returned a Kd of less than 1 pM, a koff of less than 1e-07 s⁻¹ and a kon of 2.2e+06 M⁻¹ s⁻¹.

B9: Naratuximab × NKp46-1 H1L1 CD37/NKp46 bispecific MB (protein, part only; not given: Fab constants, linkers, ferritin, scFc, not shown: another chain or arm of the molecule; large carriers; small tags and cut ends)
VH 1: B4 VH 2
VL 1: B4 VL 2
VH 2: B6 VH
VL 2: B7 VL 2
For the molecule B9, in assay [1], the EC50 of ADCC (calcein release) on Ramos cells with primary human NK cells is 0.316 pM and the EC50 of apoptosis (Annexin-V+ cells, flow cytometry) on Daudi cells is 54 pM. In assay [2], this molecule registered a Kd of less than 1 pM, a dissociation rate constant (koff) of less than 1e-07 s⁻¹ and a kon of 3.65e+06 M⁻¹ s⁻¹.

B10: Naratuximab × NKp46-4 H1L2 CD37/NKp46 bispecific MB (protein, part only; not given: Fab constants, linkers, ferritin, scFc, not shown: another chain or arm of the molecule; large carriers; small tags and cut ends)
VH 1: B2 VH 2
VL 1: B2 VL 2
VH 2: B6 VH
VL 2: B7 VL 2
On to B10, for which, in assay [1], the EC50 of ADCC (calcein release) on Ramos cells with primary human NK cells is 0.777 pM and the EC50 of apoptosis (Annexin-V+ cells, flow cytometry) on Daudi cells worked out at 73 pM. In assay [2], this molecule registered a Kd of 17.5 pM, a koff of 3.42e-05 s⁻¹ and a kon of 1.96e+06 M⁻¹ s⁻¹.

In general, Kd refers to the concentration at which binding is half-saturated. Broadly, the koff is a measure of how fast the partners let go of each other. A low value points to a long-lived complex. A word on the kon: it is the rate constant with which the complex forms.
